This assay has as its target T1, CRF1R receptor (anti-target) (UniProt P34998 24-415, limits assumed).
T1 sequence (looked up): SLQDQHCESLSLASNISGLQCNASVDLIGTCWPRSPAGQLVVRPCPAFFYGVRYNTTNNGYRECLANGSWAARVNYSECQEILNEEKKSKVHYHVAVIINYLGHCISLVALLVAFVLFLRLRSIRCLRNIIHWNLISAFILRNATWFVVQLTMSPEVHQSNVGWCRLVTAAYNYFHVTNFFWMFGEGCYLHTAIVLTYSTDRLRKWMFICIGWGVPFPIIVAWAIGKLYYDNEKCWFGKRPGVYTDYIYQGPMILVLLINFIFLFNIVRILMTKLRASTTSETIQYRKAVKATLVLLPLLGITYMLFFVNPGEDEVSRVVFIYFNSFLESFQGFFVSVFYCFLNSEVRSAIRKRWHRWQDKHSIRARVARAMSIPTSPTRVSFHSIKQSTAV
Nature of the assay: cell-based or functional assay.

Consider seven molecules from patent US12679878B2, “CRF2 receptor agonists and their use in therapy” (SANOFI, priority 2020, dated 2026).

Starred links: 1 amine or outer side, 2 acyl side, 3 side chain; linkers in the order of their positions; H or OH if unused. Non-standard residues stand in square brackets, D forms with d. Groups on a side chain read outwards from the residue. No end group written: not given here. *: point of attachment. C20 diacid = O=C(O)CCCCCCCCCCCCCCCCCCC(=O)*; C16 diacid = O=C(O)CCCCCCCCCCCCCCC(=O)*; γGlu = O=C(O)[C@H](CCC(=O)[*:2])N[*:1]; Palmitoyl = CCCCCCCCCCCCCCCC(=O)*; AEEA = NCCOCCOCC(=O)O; Aib = CC(C)(N)C(=O)O

B1: peptide of SEQ ID NO: 197 (peptide)
peptide: IVLSLD[dV]PIKLK([γGlu-C16 diacid])QILLKQARQK[Aib]QRAQAEKNKRILERV-NH2
modifications: N-terminus assumed
SMILES: CC[C@H](C)[C@H](N)C(=O)N[C@H](C(=O)N[C@@H](CC(C)C)C(=O)N[C@@H](CO)C(=O)N[C@@H](CC(C)C)C(=O)N[C@@H](CC(=O)O)C(=O)N[C@@H](C(=O)N1CCC[C@H]1C(=O)N[C@H](C(=O)N[C@@H](CCCCN)C(=O)N[C@@H](CC(C)C)C(=O)N[C@@H](CCCCNC(=O)CC[C@H](NC(=O)CCCCCCCCCCCCCCC(=O)O)C(=O)O)C(=O)N[C@@H](CCC(N)=O)C(=O)N[C@H](C(=O)N[C@@H](CC(C)C)C(=O)N[C@@H](CC(C)C)C(=O)N[C@@H](CCCCN)C(=O)N[C@@H](CCC(N)=O)C(=O)N[C@@H](C)C(=O)N[C@@H](CCCNC(=N)N)C(=O)N[C@@H](CCC(N)=O)C(=O)N[C@@H](CCCCN)C(=O)NC(C)(C)C(=O)N[C@@H](CCC(N)=O)C(=O)N[C@@H](CCCNC(=N)N)C(=O)N[C@@H](C)C(=O)N[C@@H](CCC(N)=O)C(=O)N[C@@H](C)C(=O)N[C@@H](CCC(=O)O)C(=O)N[C@@H](CCCCN)C(=O)N[C@@H](CC(N)=O)C(=O)N[C@@H](CCCCN)C(=O)N[C@@H](CCCNC(=N)N)C(=O)N[C@H](C(=O)N[C@@H](CC(C)C)C(=O)N[C@@H](CCC(=O)O)C(=O)N[C@@H](CCCNC(=N)N)C(=O)N[C@H](C(N)=O)C(C)C)[C@@H](C)CC)[C@@H](C)CC)[C@@H](C)CC)C(C)C)C(C)C
For B1, the “EC50 [nM] 0% HSA (cAMP, HTRF)” value was above 100 nM and the “Emax (%) (100% = Sauvagine at 100 nM)” value was 24.4%.

B2: peptide of SEQ ID NO: 195 (peptide)
peptide: IVLSLD[dV]PIGLK([γGlu-C16 diacid])QILLKQERQKK[Aib]RQQAETNKRILERV-NH2
modifications: N-terminus assumed
SMILES: CC[C@H](C)[C@H](N)C(=O)N[C@H](C(=O)N[C@@H](CC(C)C)C(=O)N[C@@H](CO)C(=O)N[C@@H](CC(C)C)C(=O)N[C@@H](CC(=O)O)C(=O)N[C@@H](C(=O)N1CCC[C@H]1C(=O)N[C@H](C(=O)NCC(=O)N[C@@H](CC(C)C)C(=O)N[C@@H](CCCCNC(=O)CC[C@H](NC(=O)CCCCCCCCCCCCCCC(=O)O)C(=O)O)C(=O)N[C@@H](CCC(N)=O)C(=O)N[C@H](C(=O)N[C@@H](CC(C)C)C(=O)N[C@@H](CC(C)C)C(=O)N[C@@H](CCCCN)C(=O)N[C@@H](CCC(N)=O)C(=O)N[C@@H](CCC(=O)O)C(=O)N[C@@H](CCCNC(=N)N)C(=O)N[C@@H](CCC(N)=O)C(=O)N[C@@H](CCCCN)C(=O)N[C@@H](CCCCN)C(=O)NC(C)(C)C(=O)N[C@@H](CCCNC(=N)N)C(=O)N[C@@H](CCC(N)=O)C(=O)N[C@@H](CCC(N)=O)C(=O)N[C@@H](C)C(=O)N[C@@H](CCC(=O)O)C(=O)N[C@H](C(=O)N[C@@H](CC(N)=O)C(=O)N[C@@H](CCCCN)C(=O)N[C@@H](CCCNC(=N)N)C(=O)N[C@H](C(=O)N[C@@H](CC(C)C)C(=O)N[C@@H](CCC(=O)O)C(=O)N[C@@H](CCCNC(=N)N)C(=O)N[C@H](C(N)=O)C(C)C)[C@@H](C)CC)[C@@H](C)O)[C@@H](C)CC)[C@@H](C)CC)C(C)C)C(C)C
As to B2, the “EC50 [nM] 0% HSA (cAMP, HTRF)” value is above 100 nM and the “Emax (%) (100% = Sauvagine at 100 nM)” value was 17.1%.

B3: peptide of SEQ ID NO: 223 (peptide)
peptide: IVLSLD[dV]PTKLK([γGlu-Palmitoyl])QKLLKQERQRKEREQAEKNKRILERV-NH2
modifications: N-terminus assumed
SMILES: CCCCCCCCCCCCCCCC(=O)N[C@@H](CCC(=O)NCCCC[C@H](NC(=O)[C@H](CC(C)C)NC(=O)[C@H](CCCCN)NC(=O)[C@@H](NC(=O)[C@@H]1CCCN1C(=O)[C@H](NC(=O)[C@H](CC(=O)O)NC(=O)[C@H](CC(C)C)NC(=O)[C@H](CO)NC(=O)[C@H](CC(C)C)NC(=O)[C@@H](NC(=O)[C@@H](N)[C@@H](C)CC)C(C)C)C(C)C)[C@@H](C)O)C(=O)N[C@@H](CCC(N)=O)C(=O)N[C@@H](CCCCN)C(=O)N[C@@H](CC(C)C)C(=O)N[C@@H](CC(C)C)C(=O)N[C@@H](CCCCN)C(=O)N[C@@H](CCC(N)=O)C(=O)N[C@@H](CCC(=O)O)C(=O)N[C@@H](CCCNC(=N)N)C(=O)N[C@@H](CCC(N)=O)C(=O)N[C@@H](CCCNC(=N)N)C(=O)N[C@@H](CCCCN)C(=O)N[C@@H](CCC(=O)O)C(=O)N[C@@H](CCCNC(=N)N)C(=O)N[C@@H](CCC(=O)O)C(=O)N[C@@H](CCC(N)=O)C(=O)N[C@@H](C)C(=O)N[C@@H](CCC(=O)O)C(=O)N[C@@H](CCCCN)C(=O)N[C@@H](CC(N)=O)C(=O)N[C@@H](CCCCN)C(=O)N[C@@H](CCCNC(=N)N)C(=O)N[C@H](C(=O)N[C@@H](CC(C)C)C(=O)N[C@@H](CCC(=O)O)C(=O)N[C@@H](CCCNC(=N)N)C(=O)N[C@H](C(N)=O)C(C)C)[C@@H](C)CC)C(=O)O
On to B3, for which the “EC50 [nM] 0% HSA (cAMP, HTRF)” value was found to be 82.8 nM and the “Emax (%) (100% = Sauvagine at 100 nM)” value stood at 57.3%.

For the molecule IVLSLD[dV]PTKLK([AEEA-AEEA-γGlu-C20 diacid])KKLLKQERKR[Aib]EREKAEKAARILERV-NH2 [peptide of SEQ ID NO: 224], the “EC50 [nM] 0% HSA (cAMP, HTRF)” value was above 100 nM and the “Emax (%) (100% = Sauvagine at 100 nM)” value amounted to 52.6%.

B4: peptide of SEQ ID NO: 190 (peptide)
peptide: IVLSLD[dV]PIKLK([γGlu-C16 diacid])QILLKQERQKKQREQAEKNKQILEQV-NH2
modifications: N-terminus assumed
SMILES: CC[C@H](C)[C@H](N)C(=O)N[C@H](C(=O)N[C@@H](CC(C)C)C(=O)N[C@@H](CO)C(=O)N[C@@H](CC(C)C)C(=O)N[C@@H](CC(=O)O)C(=O)N[C@@H](C(=O)N1CCC[C@H]1C(=O)N[C@H](C(=O)N[C@@H](CCCCN)C(=O)N[C@@H](CC(C)C)C(=O)N[C@@H](CCCCNC(=O)CC[C@H](NC(=O)CCCCCCCCCCCCCCC(=O)O)C(=O)O)C(=O)N[C@@H](CCC(N)=O)C(=O)N[C@H](C(=O)N[C@@H](CC(C)C)C(=O)N[C@@H](CC(C)C)C(=O)N[C@@H](CCCCN)C(=O)N[C@@H](CCC(N)=O)C(=O)N[C@@H](CCC(=O)O)C(=O)N[C@@H](CCCNC(=N)N)C(=O)N[C@@H](CCC(N)=O)C(=O)N[C@@H](CCCCN)C(=O)N[C@@H](CCCCN)C(=O)N[C@@H](CCC(N)=O)C(=O)N[C@@H](CCCNC(=N)N)C(=O)N[C@@H](CCC(=O)O)C(=O)N[C@@H](CCC(N)=O)C(=O)N[C@@H](C)C(=O)N[C@@H](CCC(=O)O)C(=O)N[C@@H](CCCCN)C(=O)N[C@@H](CC(N)=O)C(=O)N[C@@H](CCCCN)C(=O)N[C@@H](CCC(N)=O)C(=O)N[C@H](C(=O)N[C@@H](CC(C)C)C(=O)N[C@@H](CCC(=O)O)C(=O)N[C@@H](CCC(N)=O)C(=O)N[C@H](C(N)=O)C(C)C)[C@@H](C)CC)[C@@H](C)CC)[C@@H](C)CC)C(C)C)C(C)C
For the molecule B4, the “EC50 [nM] 0% HSA (cAMP, HTRF)” value was above 100 nM and the “Emax (%) (100% = Sauvagine at 100 nM)” value stood at 12%.

B5: peptide of SEQ ID NO: 196 (peptide)
peptide: IVLSLD[dV]PIGLK([γGlu-C16 diacid])QILLKQERQKK[Aib]REQAEKNKRILERV-NH2
modifications: N-terminus assumed
SMILES: CC[C@H](C)[C@H](N)C(=O)N[C@H](C(=O)N[C@@H](CC(C)C)C(=O)N[C@@H](CO)C(=O)N[C@@H](CC(C)C)C(=O)N[C@@H](CC(=O)O)C(=O)N[C@@H](C(=O)N1CCC[C@H]1C(=O)N[C@H](C(=O)NCC(=O)N[C@@H](CC(C)C)C(=O)N[C@@H](CCCCNC(=O)CC[C@H](NC(=O)CCCCCCCCCCCCCCC(=O)O)C(=O)O)C(=O)N[C@@H](CCC(N)=O)C(=O)N[C@H](C(=O)N[C@@H](CC(C)C)C(=O)N[C@@H](CC(C)C)C(=O)N[C@@H](CCCCN)C(=O)N[C@@H](CCC(N)=O)C(=O)N[C@@H](CCC(=O)O)C(=O)N[C@@H](CCCNC(=N)N)C(=O)N[C@@H](CCC(N)=O)C(=O)N[C@@H](CCCCN)C(=O)N[C@@H](CCCCN)C(=O)NC(C)(C)C(=O)N[C@@H](CCCNC(=N)N)C(=O)N[C@@H](CCC(=O)O)C(=O)N[C@@H](CCC(N)=O)C(=O)N[C@@H](C)C(=O)N[C@@H](CCC(=O)O)C(=O)N[C@@H](CCCCN)C(=O)N[C@@H](CC(N)=O)C(=O)N[C@@H](CCCCN)C(=O)N[C@@H](CCCNC(=N)N)C(=O)N[C@H](C(=O)N[C@@H](CC(C)C)C(=O)N[C@@H](CCC(=O)O)C(=O)N[C@@H](CCCNC(=N)N)C(=O)N[C@H](C(N)=O)C(C)C)[C@@H](C)CC)[C@@H](C)CC)[C@@H](C)CC)C(C)C)C(C)C
Consider B5, for which the “EC50 [nM] 0% HSA (cAMP, HTRF)” value is above 100 nM and the “Emax (%) (100% = Sauvagine at 100 nM)” value is 16.9%.

B6: peptide of SEQ ID NO: 193 (peptide)
peptide: IVLSLD[dV]PIGLK([γGlu-C16 diacid])QILLKQERQKK[Aib]REQAETNKRILERV-NH2
modifications: N-terminus assumed
SMILES: CC[C@H](C)[C@H](N)C(=O)N[C@H](C(=O)N[C@@H](CC(C)C)C(=O)N[C@@H](CO)C(=O)N[C@@H](CC(C)C)C(=O)N[C@@H](CC(=O)O)C(=O)N[C@@H](C(=O)N1CCC[C@H]1C(=O)N[C@H](C(=O)NCC(=O)N[C@@H](CC(C)C)C(=O)N[C@@H](CCCCNC(=O)CC[C@H](NC(=O)CCCCCCCCCCCCCCC(=O)O)C(=O)O)C(=O)N[C@@H](CCC(N)=O)C(=O)N[C@H](C(=O)N[C@@H](CC(C)C)C(=O)N[C@@H](CC(C)C)C(=O)N[C@@H](CCCCN)C(=O)N[C@@H](CCC(N)=O)C(=O)N[C@@H](CCC(=O)O)C(=O)N[C@@H](CCCNC(=N)N)C(=O)N[C@@H](CCC(N)=O)C(=O)N[C@@H](CCCCN)C(=O)N[C@@H](CCCCN)C(=O)NC(C)(C)C(=O)N[C@@H](CCCNC(=N)N)C(=O)N[C@@H](CCC(=O)O)C(=O)N[C@@H](CCC(N)=O)C(=O)N[C@@H](C)C(=O)N[C@@H](CCC(=O)O)C(=O)N[C@H](C(=O)N[C@@H](CC(N)=O)C(=O)N[C@@H](CCCCN)C(=O)N[C@@H](CCCNC(=N)N)C(=O)N[C@H](C(=O)N[C@@H](CC(C)C)C(=O)N[C@@H](CCC(=O)O)C(=O)N[C@@H](CCCNC(=N)N)C(=O)N[C@H](C(N)=O)C(C)C)[C@@H](C)CC)[C@@H](C)O)[C@@H](C)CC)[C@@H](C)CC)C(C)C)C(C)C
Turning to B6, the “EC50 [nM] 0% HSA (cAMP, HTRF)” value is above 100 nM and the “Emax (%) (100% = Sauvagine at 100 nM)” value turned out to be 8.77%.
